Data from PMC10498669.

Target: AAV8 VP3 of the VP3-only capsid (VLP-0) (adeno-associated virus serotype 8)
Assay: native MS; high-resolution ensemble native MS of purified capsids; 75 mM ammonium acetate pH 7.5; Orbitrap Q Exactive UHMR, xenon collision gas, positive ion mode; spectra compared with simulations of stochastic assembly

With “AAV8 VP3 of the VP3-only capsid (VLP-0) (natural protein)” the stoichiometry N was 60.
